In publication PMC12167710 (Nature Biotechnology, 2024):

Legend:
[1] = target: T1, receptor-binding domain (RBD) of the wild-type SARS-CoV-2 spike protein (SARS-CoV-2, UniProt P0DTC2 333-527); experiment: ELISA; settings: both partners purified
T1 construct: also called SARS-CoV-2 RBD

[2] = target: T1, receptor-binding domain (RBD) of the …; experiment: BLI; settings: both partners purified

B1: mRBD2 (antibody, V domains shown)
VH: QVQLQQSGAELARPGASVKLSCKASGYTFISNGISWVKQRTGQGLEWIGEIYPRNGNTYYNEKFKGKATLTADKSSSTAYMELRSLTSEDSAVFFCARDYYYGSFDYWGQGTTLTVSS
VL: DIQMTQSPSSLSASLGERVSLTCRASREISGYLTWLQQKPDGTIKRLIYAASTLDSGVPKRFSGSRSGSDYSLTISSLESEDFADYYCLQYASYPWTFGGGTKLEIK
Work on B1 yielded an EC50 [1] of 0.0896 nM.

B2: mRBD5 (antibody, V domains shown)
VH: QVQLQQPGAELVKPGASVKVSCKASGYTFTSYWMHWVKQRPGQGLEWIGRIHPSDSDTNYNQKFKGKATLTVDKSSSTAYMQLSSLTSEDSAVYYCAIDWDGDYWGQGTTLTVSS
VL: DIVMSQSPSSLAVSAGEKVTMSCKSSQSLLNSRTRKNYLAWYQQKPGQSPKLLIYWASTRESGVPDRFTGSGSGTDFTLTISSVQAEDLAVYYCKQSYNLWTFGGGTKLEIK
Binder B2 has an EC50 [1] of 0.321 nM.

B3: mRBD6 (antibody, V domains shown)
VH: QVQLQQPGAELVKPGASVKVSCKASGYTFTSYWMHWVKQRPGQGLEWIGRIHPSDSDTNYNQKFKGKATLTVDKSSSTAYMQLSSLTSEDSAVYYCAMDWDVDYWGQGTTLTVSS
VL: DIVMSQSPSSLAVSAGEKVTMSCKSSQSLLNSRTRKNYLAWYQQKPGQSPKLLIYWASTRESGVPDRFTGSGSGTDFTLTISSVQAEDLAVYYCKQSYNLLTFGAGTKLELK
With B3 the EC50 [1] was 0.393 nM.

B4: mRBD1 (antibody, V domains shown)
VH: QVQLQQPGAELVKPGASVKVSCKASGYTFTSYWMHWVKQRPGQGLEWIGRIHPSDSDTNYNQKFKGKATLTVDKSSNTAYMQLSSLTSEDSAVYYCAILDCYWYFDVWGTGTTVTVSS
VL: QIVLTQSPAIMSASPGEKVTMTCSASSSVSYMYWYQQKPGSSPRLLIYDTSNLASGVPVRFSGSGSGTSYSLTISRMEAEDAATYYCQQWSSYPLTFGAGTKLELK
Work on B4 yielded an EC50 [1] of 0.134 nM.

B5: mRBD25 (antibody, V domains shown)
VH: QVQLQQSGPELVKPGASVKISCKASGYAFSNSWMNWVKQRPGKGLEWIGRIYPGDGDTNYNGKFKGKATLTADKSSSTAYMQLSSLTSEDSAVYFCANYYGDYWGQGTTLTVSS
VL: QIVLTQSPALMSASPGEKVTMTCSASSSVSYMYWYQQKPRSSPKPWIYLTSNLASGVPARFSGSGSGTSYSLTISSMEAEDAATYYCQQWSSNPYTFGGGTKLEIK
B5 gave an EC50 [1] of 0.0815 nM.

B6: hRBD10 (antibody, V domains shown)
VH: EVQLVESGGGLVQPGGSLRLSCSASGFTFTTYNMNWVRQAPGKGLEWVSYISSSSSTIYYADSVEGRFTISRDNAKNSLYLQMNSLRDEDTAVYYCARGVGATSYYYHGMDVWGQGTTVSVSS
VL: DIQMTQSPSSLSASVGDRVTITCRASQSIYSYLNWYKQKAGKAPKLLIYAASSLQSGVPSRFSGSGSGTDFTLTIISLQPEDFATYYCQQSYSTPPTFGQGTKVEIK
With B6 the Kd [2] was 0.173 nM.

B7: mRBD23 (antibody, V domains shown)
VH: QVQLQQPGAELVRPGSSVKLSCKASGYTFTSYWMHWVKQRPIQGLEWIGNIDPSDSETHYNQKFKDKATLTVDKSSSTAYMQLSSLTSEDSAVYYCTRPGSLRSRGWYFDVWGTGTTVTVSS
VL: DIVMTQAAPSVPVTPGESVSISCRSSKSLLHSNGNTYLYWFLQRPGQSPQLLIYRMSNLASGVPDRFSGSGSGTAFTLRISRVEAEDVGVYYCMQHLEYPYTFGGGTKLEIK
Binder B7 has an EC50 [1] of 0.304 nM.

B8: mRBD3 (antibody, V domains shown)
VH: QVQLQQPGAELVMPGTSVKLSCKASGYIFTSYWMHWVKQRPGQGLEWIGEIDPSDNYTNYNQKFKGKSTLTVDKSSSTAYMQLSSLTSEDSAVYYCARGGLYYYGSSYDAMDYWGQGTSVTVSS
VL: DIVMTQAAPSVPVTPGESVSISCRSSKSLLHSNGNTYLYWFLQRPGQSPQLLIYRMSNLASGVPDRFSGSGSGTAFTLRISRVEAEDVGAYYCMQHLEYPFTFGSGTKLEIK
Binder B8 has an EC50 [1] of 0.102 nM.

B9: mRBD4 (antibody, V domains shown)
VH: QVQLQQPGAELVMPGASVKLSCKASGYTFTSYWMHWVKQRPGQGLEWIGEIDPSDSYTNYNQKFKDKSTLTVDKSSSTAYMQLSSLTSEDSAVYYCARGGVYYYGSSHYFDYWGQGTTLTVSS
VL: DIVMTQAAPSVPVTPGESVSISCRSSKSLLHSNGNTYLYWFLQRPGQSPQFLIYRMSNLASGVPDRFSGSGSGTAFTLRISRVEAEDVGVYYCMQHLEYPFTFGSGTKLEIK
B9 gave an EC50 [1] of 0.202 nM.

B10: mRBD18 (antibody, V domains shown)
VH: QIQLVQSGPELKKPGETVKISCKASGYTFTDYPMHWVQQAPGKGFKWMGMIYTDTGEPTYAEEFKGRFAFSLETSASTAYLQINNLKNEDTATYFCVRWAGYFDYWGQGTTLTVSS
VL: DIVLTQSPASLAVSLGQRATISCRASESVDSYGNSFMDWYQQKPGQPPKLLIYRASNLESGIPARFSGSGSRTDFTLIINPVEADDVATYYCQQSNEHPLTFGAGTKLELK
Binder B10 has an EC50 [1] of 0.222 nM.

B11: mRBD24 (antibody, V domains shown)
VH: EVQLQQSGPDLVKPGASVKISCKASGYTFTDYYMNWVKQSHGKSLEWIGDINPNNGGTYYNQKFKGKATLTVDKSSSTAYMELRSLTSEDSAVYYCARQLRRWGQGTLVTVSA
VL: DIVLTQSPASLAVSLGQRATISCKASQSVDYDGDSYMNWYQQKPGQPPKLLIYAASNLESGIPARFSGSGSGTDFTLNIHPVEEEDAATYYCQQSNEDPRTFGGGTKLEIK
B11 gave an EC50 [1] of 0.0635 nM.

B12: mRBD16 (antibody, V domains shown)
VH: QIQLVQSGPELKKPGETVKISCKASGYTLTEYPMHWVKQAPGKGFKWMGMIYTDTGEPTYAEEFKGRFAFSLETSASTAYLQINNLKNEDTATYFCVRAGPSFAMDYWGQGTSVTVSS
VL: NIVLTQSPASLAVSLGQRATISCRASESVDSYGNSFMHWYQQKPGQPPKLLIYLASNLESGVPARFSGSGSRTDFTLTIDPVEADDAATYYCQQNNEDPYTFGGGTKLEIK
B12 gave an EC50 [1] of 0.0895 nM.

B13: mRBD21 (antibody, V domains shown)
VH: QIQLVQSGPELKKPGETVKISCKASGYTFTKYPMHWVKQAPGKGFKWMGMIYTDTGEPTYAEEFKGRCAFSLETSASTAYLQINNLKNEDTATYFCVRWGGSYALDYWGQGTSVTVSS
VL: DIVLTQSPASLAVSLGQRATISCRASESVDSYGNSFMHWYQQKPGQPPKLLIYRASNLESGIPARFSGSGSRTDFTLTINPVEADDVATYYCQQSNEDPLTFGAGTKLELK
B13 showed an EC50 [1] of 0.18 nM.

B14: mRBD22 (antibody, V domains shown)
VH: QIQLVQSGPELKKPGETVKISCKASGYTFTEYPMHWVKQAPGKGFKWMGMIYTDTGEPTYAEEFKGRFAFSLETSASTAYLQINNLKNEDTATYFCVRGGYYYFDYWGQGTTLTVSS
VL: NIVLTQSPASLAVSLGQRATISCRASESVDSYGNSFMHWYQQKPGQPPKLLIYLASNLESGVPARFSGSGSRTDFTLTIDPVEADDAATYYCQQNNEDPWTFGGGTKLEIK
B14 gave an EC50 [1] of 0.218 nM.

B15: mRBD11 (antibody, V domains shown)
VH: QVQLQQSGAELARPGASVKLSCKASGYTFISNGISWVKQRTGQGLEWIGEIYPRNGNTYYNEKFKGKATLTADKSSSTAYMELRSLTSEDSAVFFCARDYYYGNFDYWGQGTTLTVSS
VL: NIVLTQSPASLAVSLGQRATISCRASESVDSYGNSFMHWYQQKPGQPPKLLIYLASNLESGVPARFSGSGSRTDFTLTIDPVEADDAATYYCQQNNEDPYTFGGGTKLEIK
In the case of B15, the EC50 [1] is reported as 82.3 nM.

B16: mRBD15 (antibody, V domains shown)
VH: QIQLVQSGPDLKKPGETVKISCKASGYTFTEYPMHWVKQAPGKGFQWMGMIYTDTGEPTYAEEFKGRFAFSLETSASTAYLQINNLKNEDTSTYFCVRAGPSYAMDYWGQGTSVTVSS
VL: NIVLTQSPASLAVSLGQRATISCRASESVDSYGNSFMHWYQQKPGQPPKLLIYLASNVESGVPARFSGSGSRTDFTLTIDPVEADDAATYYCHQINEDPYTFGGGTKLEIK
B16 showed an EC50 [1] of 0.124 nM.

B17: mRBD19 (antibody, V domains shown)
VH: QIQLVQSGPELKKPGETVKISCKASGYTFTEYPMHWVKQAPGKGFKWMGMIYTDTGEPTYAEEFKGRFAFSLETSASTAYLQINNLKNEDTATYFCVRGGPYYAMDYWGQGTSVTVSS
VL: NIVLTQSPASLAVSLGQRATISCRASESVDSYGNSFMHWYQQKPGQPPKLLIYLASNLESGVPARFSGSGSRTDFTLTIDPVEADDAATYYCQQNNEDPWTFGGGTKLEIK
B17 showed an EC50 [1] of 0.123 nM.

B18: mRBD20 (antibody, V domains shown)
VH: QIQLVQSGPELKKPGETVKISCKASGYTLTEYPMHWVKQAPGKGFKWMGMIYTDTGEPTYAEEFKGRFAFSLETSASTAYLQINNLKNEDTATYFCVRAGPSYAMDYWGQGTSVTVSS
VL: NIVLTQSPASLAMSLGQRATISCRASESVDSYGNSFMHWYQLKPGQPPKLLIYLASNLESGVPARFSGSGSRTDFTLTIDPVEADDAATYYCQQNNEDPYTFGGGTKLEIK
B18 was tested, and the EC50 [1] was 0.153 nM.

B19: hRBD11 (antibody, V domains shown)
VH: QVQLQESGPGLVKPSQTLSLTCTVSGGSISSGGYYWSWIRQHPGKGLEWIGYIFYSGSTYYNPSLKSRVIISVDTSKNQFSLKLSSVTAADTAAYYCARVNRVYGSGSYSLDPWGQGTLVTVSS
VL: QSALTQPASVSGSPGQSITISCTGTSRDVGDYDYVSWYQQHPGKAPKLMIYEGSERPSGVSNRFSGSKSGNTASLTISGLQAEDEADYYCCSYTGSSTSFLFGTGTKVTVL
B19 was tested, and the Kd [2] was 8.87 nM.

B20: mRBD12 (antibody, V domains shown)
VH: QVQLQQSGAELARPGASVKLSCKASGYTFTSYGISWVKQRTGQGLEWIGEIYPRSGNTYYNEKFKGKATLTADKSSSTAYMEVRSLTSEDSAVYFCAREGGYGYVMDYWGQGTSVTVSS
VL: DIQMTQTTSSLSASLGDRVTISCRASQDISNYLNWYQQKPDGTVKLLIYYTSRLHSGVPSRFSGSGSGTDYSFTISNLEQEDIATYFCQQGNTLPWTFGGGTKLEIK
B20 was tested, and the EC50 [1] was 0.109 nM.

B21: mRBD10 (antibody, V domains shown)
VH: QVQLKQSGAELVRPGASVKLSCKASGYTFTDYYINWVKQRPGQGLEWIARIYPGSGNTYYNEKFKGKATLTAEKSSSTAYMQLSSLTSEDSAVYFCARDYGSSYVDYFDYWGQGTTLTVSS
VL: DIQMTQTTSSLSASLGDRVTISCRASQDISNYLNWYQQKPDGTVKLLIYYTSRLHSGVPSRFSGSGSGTDYSLTISNLEQEDIATYFCQQGNTLPLTFGAGTKLELK
In the case of B21, the EC50 [1] is reported as 0.189 nM.

B22: mRBD17 (antibody, V domains shown)
VH: QIQLVQSGPELKKPGETVKISCKASGYTLTEYPMHWVKQAPGKGFKWMGMIYTDTGEPTYAEEFKGRFAFSLETSASTAYLQINNLKNEDTATYFCVRAGPSFAMDYWGQGTSVTVSS
VL: DIQMTQTTSSLSASLGDRVTISCRASQDISNYLNWYQQKPDGTVKLLIYYTSRLHSGVPSRFSGSGSGTDYSLTISNLEQEDFATYFCQQGNTLPYTFGGGTKLEIK
Work on B22 yielded an EC50 [1] of 14.8 nM.
